Experimental data reported in patent US20140017255A1 (E R SQUIBB AND SONS L L C, published 2014).

Tests used:
[1] = target: T1, human BTLA expressed on CHO cells (human, UniProt Q7Z6A9 31-289); test: flow cytometry, antibody titrated on CHO cells expressing human BTLA, PE-anti-huFc detection, FL2 GMFI
T1 construct: also called CHO/huBTLA; hBTLA

[2] = target: T2, cynomolgus BTLA (cynomolgus, UniProt A0A2K5W7M7 31-289); test: flow cytometry, antibody titrated on CHO cells expressing cynomolgus BTLA, PE-anti-huFc detection, FL2 GMFI
T2 construct: whole, on cells; also called cyno BTLA; monkey BTLA
T2 sequence: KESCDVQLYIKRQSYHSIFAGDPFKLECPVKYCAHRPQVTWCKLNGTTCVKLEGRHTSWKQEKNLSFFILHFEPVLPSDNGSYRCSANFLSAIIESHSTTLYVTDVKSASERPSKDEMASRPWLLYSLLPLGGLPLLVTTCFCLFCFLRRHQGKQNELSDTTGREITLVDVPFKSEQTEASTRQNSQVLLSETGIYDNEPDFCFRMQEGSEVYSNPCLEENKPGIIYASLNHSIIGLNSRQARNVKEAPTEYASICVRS

T1 sequence (Q7Z6A9 other isoform, or with tags, fused parts or gaps limits assumed): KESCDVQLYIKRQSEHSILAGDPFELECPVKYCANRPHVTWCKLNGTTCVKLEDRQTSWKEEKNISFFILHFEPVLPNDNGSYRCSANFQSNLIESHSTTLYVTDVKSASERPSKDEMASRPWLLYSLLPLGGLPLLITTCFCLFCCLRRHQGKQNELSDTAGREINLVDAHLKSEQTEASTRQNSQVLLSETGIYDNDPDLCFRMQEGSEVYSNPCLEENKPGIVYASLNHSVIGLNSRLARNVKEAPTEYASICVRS

B1: hu Mab8D5 (IgG4 version, fully human monoclonal agonist anti-BTLA antibody) (antibody, V domains shown, not shown: a dimerising Fc or GST)
VH: EVQLVESGGGLVQPGGSLRLSCAASGFTISSYDMHWVRQATGKGLEWVSVIGPAGDTYYPGSVKGRFTISRENAKNSLYLQMNSLRAGDTAVYYCAREGMAAHNYYGMDVWGQGTTVTVSS
VL: not shown
notes: also called hu Mab8D5 G4; 8D5 (G4) agonist
EC50 [1]: 0.0124 µM | EC50 [2]: 0.0136 µM
